Common to all, as to experiment: FACS, hybridoma supernatant
A general note: In flow cytometry, cells or beads pass a laser one at a time.

Test [1] deals with T1, Full length mouse CD98hc on CHO cells (mouse, UniProt P10852 1-526).
T1 construct: CHO cells stably overexpressing it; also called CHO-mouse CD98hc; CHO-mCD98hc
T1 sequence: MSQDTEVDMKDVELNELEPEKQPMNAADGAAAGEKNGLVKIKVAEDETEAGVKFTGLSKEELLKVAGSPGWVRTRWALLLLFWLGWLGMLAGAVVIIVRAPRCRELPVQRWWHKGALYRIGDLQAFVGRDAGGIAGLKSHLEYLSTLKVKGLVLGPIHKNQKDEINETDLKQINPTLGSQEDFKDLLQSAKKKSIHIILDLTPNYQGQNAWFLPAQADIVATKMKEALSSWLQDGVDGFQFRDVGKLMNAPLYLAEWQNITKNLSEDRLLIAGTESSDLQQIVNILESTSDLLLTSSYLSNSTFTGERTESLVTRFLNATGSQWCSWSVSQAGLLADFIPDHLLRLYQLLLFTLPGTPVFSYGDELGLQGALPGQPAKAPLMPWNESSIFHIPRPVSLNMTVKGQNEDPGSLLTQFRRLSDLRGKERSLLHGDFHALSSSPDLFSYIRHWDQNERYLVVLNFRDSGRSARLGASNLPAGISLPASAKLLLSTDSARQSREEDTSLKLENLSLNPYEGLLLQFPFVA

For test [2], the target named is T2, human CD98hc endogenously expressed on HCMEC/D3 cells (human).
T2 construct: human brain endothelial cell line
T2 chain: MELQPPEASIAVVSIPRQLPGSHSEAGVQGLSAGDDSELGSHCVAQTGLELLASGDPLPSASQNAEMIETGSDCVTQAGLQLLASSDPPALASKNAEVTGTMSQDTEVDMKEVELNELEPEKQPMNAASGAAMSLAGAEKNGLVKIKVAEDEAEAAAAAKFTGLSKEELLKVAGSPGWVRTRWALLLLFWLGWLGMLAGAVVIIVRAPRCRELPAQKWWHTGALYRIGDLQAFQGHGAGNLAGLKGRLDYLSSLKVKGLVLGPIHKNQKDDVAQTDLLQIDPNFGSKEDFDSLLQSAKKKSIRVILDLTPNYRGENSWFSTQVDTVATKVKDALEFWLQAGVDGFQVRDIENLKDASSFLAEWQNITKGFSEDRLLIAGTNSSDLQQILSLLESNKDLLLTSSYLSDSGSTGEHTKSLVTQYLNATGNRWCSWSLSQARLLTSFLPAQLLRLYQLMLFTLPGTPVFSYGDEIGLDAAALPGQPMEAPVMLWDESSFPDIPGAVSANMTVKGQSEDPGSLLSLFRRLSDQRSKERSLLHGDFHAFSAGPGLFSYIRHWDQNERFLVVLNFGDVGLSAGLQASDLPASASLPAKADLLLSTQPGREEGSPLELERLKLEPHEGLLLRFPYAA

The target in test [3] is T3, Full length human CD98hc on CHO cells (human).
T3 construct: CHO cells stably overexpressing it; also called CHO-human CD98hc; CHO-huCD98hc
T3 chain: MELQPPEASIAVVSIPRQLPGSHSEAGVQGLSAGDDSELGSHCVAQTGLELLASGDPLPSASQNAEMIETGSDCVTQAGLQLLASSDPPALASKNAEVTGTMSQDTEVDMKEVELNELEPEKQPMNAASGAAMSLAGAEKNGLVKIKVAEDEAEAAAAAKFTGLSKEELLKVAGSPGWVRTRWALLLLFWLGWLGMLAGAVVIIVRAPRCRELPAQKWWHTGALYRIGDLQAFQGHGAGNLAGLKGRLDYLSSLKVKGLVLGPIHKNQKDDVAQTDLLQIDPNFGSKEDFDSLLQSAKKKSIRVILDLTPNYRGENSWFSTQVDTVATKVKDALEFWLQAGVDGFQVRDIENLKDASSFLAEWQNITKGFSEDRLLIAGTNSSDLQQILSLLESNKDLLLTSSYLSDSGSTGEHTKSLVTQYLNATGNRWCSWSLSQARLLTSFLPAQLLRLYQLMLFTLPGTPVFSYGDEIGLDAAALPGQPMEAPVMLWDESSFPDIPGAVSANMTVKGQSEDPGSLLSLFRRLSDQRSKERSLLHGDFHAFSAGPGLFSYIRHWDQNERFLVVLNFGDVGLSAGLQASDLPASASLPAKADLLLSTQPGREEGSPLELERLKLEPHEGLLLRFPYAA

Test [4] addresses T1, Full length mouse CD98hc on CHO cells. An excerpt: The IgG positive hybridoma supernatants (898 in total) were initially screened for their ability to differentially bind CHO cells overexpressing human or mouse CD98hc cells compared to CHO parental cells by FACS. Overexpressing cells were harvested, washed, and labeled with various concentrations and combinations of CellTrace cell proliferation dyes CFSE and Violet (ThermoFisher, Cat #C34554 and Cat #34557, respectively) to create uniquely barcoded cell populations. Barcoded cells (5×10⁴ of each cell population) were aliquoted into 96-well U-bottom plates and incubated with 50 μl of hybridoma cell culture supernatant or 1 μg/ml of commercially available purified mouse anti-human CD98hc monoclonal antibody (Sigma Aldrich, Cat #SAB 4700503) and rat anti-mouse CD98hc antibody (Bio-Rad Laboratories, Hercules, CA, Cat #MCA2684) on ice for 30 minutes. […] Following this secondary antibody incubation, the cells were again washed twice with ice-cold FACS buffer and resuspended in a final volume of 50 μl of FACS buffer containing 0.25 μl/well propidium iodide (BD Biosciences, Cat #556463). Binding intensity on cells was analyzed using the FACS Canto system (BD Biosciences), with sorting gates drawn to exclude dead (i.e., propidium iodide-positive) cells. For each barcoded cell population, the ratio of APC Mean Fluorescence Intensity (MFI) divided by secondary antibody MFI was calculated for each anti-CD98hc hybridoma supernatant tested and reported in Table 5.
The source holds these as a separate data set.

B1: CD98HC.03.010 (antibody, V domains shown)
VH: EVQLQQSGTELVKPGASVKLSCTASGLDIKDTYLHWVKQRPEQGLEWIGKIDPANGNTKYNPKFQGKATITADTSSNTAYLQLSSLTSEDTAVHYCTTPYYSGSSYGDYWGQGTTLTVSS
VL: QIVLTQSPAIMSASPGEKVTLTCSASSSVSSSYLYWYQQKPGSSPKLWIYSTSNLASGVPARFSGSGSGTSYSLTISSMEAEDAASYFCHQWSRYPLTFGAGTKLELK
notes: hybridoma IgG
Turning to B1, the figures for the “MFI ratio over secondary antibody” value in test [1], in test [2] and in test [3] were 1, 190 and 25.8, respectively. For the same molecule, the binding result in test [4] is “no binding”.

B2: CD98HC.04.064 (antibody, V domains shown)
VH: QVQLQQPGAELVRPGASVKLSCKASGYTFTSYWMNWVRQRPGQGLEWIGLIDPSDSETHYNQMFKDRATLTVDKSSSTAYMQLSSLTSADPAVYYCARASYGKGYFDYWGQGTTLTVSS
VL: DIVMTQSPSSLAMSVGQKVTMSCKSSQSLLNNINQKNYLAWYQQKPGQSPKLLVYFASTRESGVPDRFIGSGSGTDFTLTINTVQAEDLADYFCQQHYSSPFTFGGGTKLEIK
notes: hybridoma IgG
Consider B2, for which the “MFI ratio over secondary antibody” value in test [1] was determined as 1.2; in test [2], 277; in test [3], 46.6. Further, the binding result in test [4] is “no binding”.

B3: CD98HC.03.004 (antibody, V domains shown)
VH: DVQLQESGPGLVKPSQSLSLTCTVTGYSITNNYAWNWIRRFPGNKLEWMAYISYSGYTSYNPSLKSRISITRDTSKNQFFLQLNSVTTEDTATYYCTGYFYYYGGGSFDYWGQGTTLTVSS
VL: QAVVTQESALTTSPGETVTLTCRSSTGAVTTSNFANWVQEKPDHLFTGLIRGSNNRAPGVPARFSGSLIGDKAALTITGARTEDEAIYFCALWYSDHWVFGGGTKLTVL
notes: hybridoma IgG
On to B3, for which the “MFI ratio over secondary antibody” value was determined as 1 in test [1], 189 in test [2] and 34.4 in test [3]. Besides, the binding result in test [4] is “no binding”.

B4: CD98HC.04.062 (antibody, V domains shown)
VH: EVQLVESGGDLVKPGGSLKLSCTASRFAFSTYDMSWVRQTPEKRLEWVAYISSGGGSTYFPDTVKGRFTISRDNAKNTLYLQMSSLKSEDTAMYYCARQDGHYPWFPYWGQGTLVTVSA
VL: DIVMSQSPSSLAVSVGEKVTMSCKSSQSLLYSGNQKTYLAWYQQKPGQSPKPLIYWASTRESGIPDRFTGSGSGTDFTLTISSVKAEDLAVYYCQQYYSYPPTFGAGTKLELK
notes: hybridoma IgG
Regarding B4, the “MFI ratio over secondary antibody” value in test [1] was 1.3; in test [2], 91.8; in test [3] it was 25.1. For the same molecule, the binding result in test [4] is on record as “no binding”.

B5: CD98HC.04.045 (antibody, V domains shown)
VH: QIQLVQSGPELKKPGETVKISCKASGYSITNFGMNWVKQAPGKGLKWMGWVNTYTGEPTYADDFKGRFAFSLETSASTASLQINNLKNEDTATYFCTRSVITYTMDYWGQGTSVTVSS
VL: DIQLTQSPSSLSASLGERVSLTCRASQEISGYLSWLQQKPDGTIKRLIYAASTLDSGVPKRFSGSRSGSDYSLTISSLESEDFADYYCLQYASYPRTFGGGTKVEIK
notes: hybridoma IgG
On to B5, for which the “MFI ratio over secondary antibody” value in test [1] came out at 1.2; in test [2], 4; in test [3], 2.4. Further, the binding result in test [4] is given as “no binding”.

B6: CD98HC.04.063 (antibody, V domains shown)
VH: EVKLEESGGGLVQPGGSMILSCVASGFTFSNSWMNWVRQSPEKGLEWVAEIRLRSNNYATHYAESVKGRFTISRDDSKSTVYLQMNNLRAEDTGIYYCSRGDPGAYWGQGTLVTVSA
VL: DIQMTQSSSYLSVSLGNRVTITCKASDHIKNWLAWFQQKPGNAPRLLISGATILETGVPSRFSGSGSGKDYTLSITSLQTEDVATYYCQQYWSTPYTFGGGTKLEIK
notes: hybridoma IgG
For the molecule B6, the “MFI ratio over secondary antibody” value in test [1] came to 1.2; in test [2], 124; in test [3], 34.4. For the same molecule, in test [4], the binding result is on record as “no binding”.

B7: CD98HC.04.058 (antibody, V domains shown)
VH: QVQLQQSGAELVRPGVSVKISCKASGYTFTDHTMHWVKQSHARSLEWIGVISTYFGDASYNPKFKGKATMTVDKSSNTAYMELARLTSEDSAIYYCARVGGRLRLGYYFDYWGQGTTLTVSS
VL: NIMMTQSPSSLAVSAGEKVTMNCKSSQTVLYSSNQKNYLAWYQQKPGQSPKLLIYWASTRESGVPDRFTGSGSGTDFTLTISSVQVEDLAVYYCHQYLSSYTFGGGTKLEIK
notes: hybridoma IgG
On to B7, for which the “MFI ratio over secondary antibody” value was 1.2 in test [1], 158 in test [2] and 33 in test [3]. In addition, the binding result in test [4] was “no binding”.

B8: CD98HC.04.046 (antibody, V domains shown)
VH: QIQLVQSGPVLKKPGETVKISCKASGYTFTNFGMNWVKQAPGKGLKWMGWIDTYTREPTYVDDFKGRFAFSLETSVTTAYLQINDLKNEDSATYFCARGESHWYFDVWGAGTTVTVSS
VL: QIVLTQSPAIMSASLGERVTMTCIVSSSVSSSYLYWYQQKPGSSPKLWIYSTSILASGVPGRFSGSGSGTSYSLTISSMEAEDAATYYCHQYHRSPPTFGGGTKLEIK
notes: hybridoma IgG
For B8, the “MFI ratio over secondary antibody” value in test [1] was determined as 1.2; in test [2], 147; in test [3] it was 27.7. In addition, the binding result in test [4] is recorded as “no binding”.

Values taken from patent US20250270341A1 (Alector, published 2025).
